The values below come from patent US20120129766A1 (IRM, published 2012).

First the molecules themselves.
T1: human β-klotho (human, UniProt Q86Z14 1-1044)
T1 sequence (looked up): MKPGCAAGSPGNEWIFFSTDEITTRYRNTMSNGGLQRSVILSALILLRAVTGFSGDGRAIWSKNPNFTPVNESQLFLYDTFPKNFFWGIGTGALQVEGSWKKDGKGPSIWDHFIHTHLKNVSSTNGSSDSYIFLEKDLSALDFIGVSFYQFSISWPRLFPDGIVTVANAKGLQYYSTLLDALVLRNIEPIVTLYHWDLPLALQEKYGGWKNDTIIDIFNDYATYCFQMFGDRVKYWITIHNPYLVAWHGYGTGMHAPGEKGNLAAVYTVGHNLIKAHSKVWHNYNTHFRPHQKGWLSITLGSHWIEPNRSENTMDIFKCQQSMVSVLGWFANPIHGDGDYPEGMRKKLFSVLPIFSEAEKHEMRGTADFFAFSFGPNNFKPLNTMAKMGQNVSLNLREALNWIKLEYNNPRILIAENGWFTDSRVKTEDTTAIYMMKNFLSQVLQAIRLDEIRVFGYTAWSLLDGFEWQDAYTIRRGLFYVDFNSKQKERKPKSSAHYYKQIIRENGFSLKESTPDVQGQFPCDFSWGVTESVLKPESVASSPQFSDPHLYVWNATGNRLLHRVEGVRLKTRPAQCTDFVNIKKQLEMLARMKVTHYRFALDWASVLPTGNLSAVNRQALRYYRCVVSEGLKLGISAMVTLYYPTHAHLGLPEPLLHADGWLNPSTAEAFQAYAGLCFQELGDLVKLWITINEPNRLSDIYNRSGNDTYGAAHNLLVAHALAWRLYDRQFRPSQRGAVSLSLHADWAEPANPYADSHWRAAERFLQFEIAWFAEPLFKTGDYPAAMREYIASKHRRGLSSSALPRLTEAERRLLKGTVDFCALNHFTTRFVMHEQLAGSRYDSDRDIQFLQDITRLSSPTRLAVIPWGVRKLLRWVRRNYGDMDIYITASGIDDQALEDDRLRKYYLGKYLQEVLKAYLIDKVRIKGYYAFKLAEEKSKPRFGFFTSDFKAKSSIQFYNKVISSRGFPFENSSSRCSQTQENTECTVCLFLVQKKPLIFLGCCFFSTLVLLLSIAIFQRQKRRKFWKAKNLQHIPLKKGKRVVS

B1: hFGF21(33-209)-WT-R154C-40 kDa bPEG-MA (ligand)
chain: DSSPLLQFGGQVRQRYLYTDDAQQTEAHLEIREDGTVGGAADQSPESLLQLKALKPGVIQILGVKTSRFLCQRPDGALYGSLHFDPEACSFRELLLEDGYNVYQSEAHGLPLHLPGNKSPHCDPAPRGPARFLPLPGLPPALPEPPGILAPQPPDVGSSDPLSMVGPSQGRSPSYAS
modifications: 40 kDa branched maleimido-PEG on Cys 154 (numbered on SEQ ID NO:1)
B2: hFGF21(33-209)-WT-N-40 kDa bPEG-AL (ligand)
chain: DSSPLLQFGGQVRQRYLYTDDAQQTEAHLEIREDGTVGGAADQSPESLLQLKALKPGVIQILGVKTSRFLCQRPDGALYGSLHFDPEACSFRELLLEDGYNVYQSEAHGLPLHLPGNKSPHRDPAPRGPARFLPLPGLPPALPEPPGILAPQPPDVGSSDPLSMVGPSQGRSPSYAS
modifications: 40 kDa branched PEG (aldehyde reagent) on the N-terminal amine
B3: hFGF21(33-209)-WT-AM (ligand)
chain: DSSPLLQFGGQVRQRYLYTDDAQQTEAHLEIREDGTVGGAADQSPESLLQLKALKPGVIQILGVKTSRFLCQRPDGALYGSLHFDPEACSFRELLLEDGYNVYQSEAHGLPLHLPGNKSPHRDPAPRGPARFLPLPGLPPAPPEPPGILAPQPPDVGSSDPLSMVGPSQGRSPSYAS

The assay concerns the target T1, human β-klotho. Briefly: cell-based or functional assay.
With B1, the “EC50 (nM), pERK In Cell Western” value was determined as 9 nM and the “Fold-WT (EC50 of variant / EC50 of FGF21-WT)” value came out at 2.9 fold.
The matching figures for B2: 20 nM and 6.3 fold.
For B3, the “EC50 (nM), pERK In Cell Western” value stood at 5.7 nM and the “Fold-WT (EC50 of variant / EC50 of FGF21-WT)” value came out at 1.5 fold.
